Measured values as given in patent publication US20200164032A1.

Experiments:
[1] = target: murine CCL21 (mouse) (UniProt P84444); assay: SPR (Biacore T-100), T17 on CM5 chip; KD,kin
[2] = target: murine CCL24 (mouse) (UniProt Q9JKC0); assay: SPR (Biacore T-100), T17 on CM5 chip; KD,kin
[3] = target: murine CCL3 (mouse) (UniProt P10855); assay: SPR (Biacore T-100), T17 on CM5 chip; KD,kin
[4] = target: murine CCL4 (mouse) (UniProt P14097); assay: SPR (Biacore T-100), T17 on CM5 chip; KD,kin
[5] = target: murine CCL5 (mouse) (UniProt P30882); assay: SPR (Biacore T-100), T17 on CM5 chip; KD,kin
[6] = target: murine CCL8 (mouse) (UniProt Q9Z121); assay: SPR (Biacore T-100), T17 on CM5 chip; KD,kin
[7] = target: CCL9 (UniProt P51670); assay: SPR (Biacore T-100), T17 on CM5 chip; global 1:1 mass transport fit
[8] = target: human CCL2 (human) (UniProt P13500); assay: as above
[9] = target: murine CCL11 (mouse) (UniProt P48298); assay: as above
[10] = target: murine CCL12 (mouse) (UniProt Q62401); assay: as above
[11] = target: murine CCL2 (mouse) (UniProt P10148); assay: as above
[12] = target: murine CCL20 (mouse) (UniProt O89093); assay: as above
[13] = target: murine CCL21 (mouse) (UniProt P84444); assay: as above
[14] = target: murine CCL24 (mouse) (UniProt Q9JKC0); assay: as above
[15] = target: murine CCL3 (mouse) (UniProt P10855); assay: as above
[16] = target: murine CCL4 (mouse) (UniProt P14097); assay: as above
[17] = target: murine CCL5 (mouse) (UniProt P30882); assay: as above
[18] = target: murine CCL8 (mouse) (UniProt Q9Z121); assay: as above
[19] = target: CXCL10 (as tested against T17; species not stated); assay: BLI (Octet Red), biotinylated T17 on streptavidin biosensors; t1/2
[20] = target: CXCL12 (hSDF-1a) (Homo sapiens) (UniProt P48061); assay: as above
[21] = target: CXCL12 (hSDF-1b) (Homo sapiens) (UniProt P48061); assay: as above
[22] = target: XCL1 (as tested against T17; species not stated); assay: as above
[23] = target: CXCL10 (as tested against T17; species not stated); assay: BLI (Octet Red), biotinylated T17 on streptavidin biosensors; KD,eq
[24] = target: CXCL12 (hSDF-1b) (Homo sapiens) (UniProt P48061); assay: as above
[25] = target: XCL1 (as tested against T17; species not stated); assay: as above
[26] = target: CXCL10 (as tested against T17; species not stated); assay: BLI (Octet Red), biotinylated T17 on streptavidin biosensors; KD,kin
[27] = target: CXCL12 (hSDF-1b) (Homo sapiens) (UniProt P48061); assay: as above
[28] = target: XCL1 (as tested against T17; species not stated); assay: as above

murine CCL4 (mouse), sequence (P14097 24-92 limits assumed): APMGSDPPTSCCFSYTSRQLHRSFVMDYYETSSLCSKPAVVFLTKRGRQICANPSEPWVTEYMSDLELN
murine CCL24 (mouse), sequence (Q9JKC0 27-119 limits assumed): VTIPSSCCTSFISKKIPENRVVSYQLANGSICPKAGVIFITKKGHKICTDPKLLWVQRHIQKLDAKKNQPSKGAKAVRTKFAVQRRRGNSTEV
CXCL12 (hSDF-1b) (Homo sapiens), sequence (P48061 22-93): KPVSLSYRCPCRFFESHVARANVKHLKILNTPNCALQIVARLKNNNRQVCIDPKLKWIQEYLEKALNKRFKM
murine CCL8 (mouse), sequence (Q9Z121 24-97 limits assumed): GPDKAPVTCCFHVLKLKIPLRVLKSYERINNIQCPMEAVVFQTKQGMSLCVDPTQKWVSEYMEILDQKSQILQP
murine CCL5 (mouse), sequence (P30882 24-91 limits assumed): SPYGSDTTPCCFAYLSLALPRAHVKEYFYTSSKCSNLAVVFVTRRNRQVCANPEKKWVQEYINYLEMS
murine CCL21 (mouse), sequence (P84444 24-133): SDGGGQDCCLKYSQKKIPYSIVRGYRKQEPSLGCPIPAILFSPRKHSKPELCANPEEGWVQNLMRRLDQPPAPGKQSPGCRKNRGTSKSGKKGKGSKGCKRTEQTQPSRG
murine CCL3 (mouse), sequence (P10855 24-92 limits assumed): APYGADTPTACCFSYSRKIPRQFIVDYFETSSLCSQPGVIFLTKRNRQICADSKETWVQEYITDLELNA
CCL9, sequence (P51670 22-122 limits assumed): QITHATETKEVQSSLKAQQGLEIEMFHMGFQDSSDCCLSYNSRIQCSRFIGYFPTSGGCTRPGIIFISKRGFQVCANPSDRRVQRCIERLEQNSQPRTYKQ
murine CCL12 (mouse), sequence (Q62401 23-104 limits assumed): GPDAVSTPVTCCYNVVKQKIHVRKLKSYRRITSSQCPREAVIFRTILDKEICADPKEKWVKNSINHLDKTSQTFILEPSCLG
human CCL2 (human), sequence (P13500 24-99 limits assumed): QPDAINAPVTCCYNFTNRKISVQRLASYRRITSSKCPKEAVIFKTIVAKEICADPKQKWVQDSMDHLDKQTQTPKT
murine CCL11 (mouse), sequence (P48298 24-97 limits assumed): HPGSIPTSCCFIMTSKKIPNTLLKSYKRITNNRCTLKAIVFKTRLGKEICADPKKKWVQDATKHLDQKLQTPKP
murine CCL2 (mouse), sequence (P10148 24-148 limits assumed): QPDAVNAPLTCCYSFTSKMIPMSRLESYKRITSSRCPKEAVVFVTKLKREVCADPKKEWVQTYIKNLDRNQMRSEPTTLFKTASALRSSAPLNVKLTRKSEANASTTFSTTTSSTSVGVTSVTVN
murine CCL20 (mouse), sequence (O89093 28-97 limits assumed): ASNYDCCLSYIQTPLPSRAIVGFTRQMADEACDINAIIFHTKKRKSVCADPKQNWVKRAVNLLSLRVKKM
CXCL12 (hSDF-1a) (Homo sapiens), sequence (P48061 22-89 limits assumed): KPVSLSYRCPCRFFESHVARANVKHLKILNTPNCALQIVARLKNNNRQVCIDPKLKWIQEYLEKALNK

## T17 chemokine decoy receptor of Rodent herpesvirus Texas (RHVT), C-terminal His tag (6 histidine residues) fusion
[1]
  Kd: 15.5 nM
[2]
  Kd: 10.5 nM
[3]
  Kd: 3.25 nM
[4]
  Kd: 0.16 nM
[5]
  Kd: 1.47 nM
[6]
  Kd: 1.23 nM
[7]
  koff: 0.0298 s⁻¹
  kon: 1.65e+06 M⁻¹ s⁻¹
[8]
  koff: 0.0265 s⁻¹
  kon: 1.51e+07 M⁻¹ s⁻¹
[9]
  koff: 0.00637 s⁻¹
  kon: 1.73e+07 M⁻¹ s⁻¹
[10]
  koff: 0.0396 s⁻¹
  kon: 1.56e+07 M⁻¹ s⁻¹
[11]
  koff: 0.00308 s⁻¹
  kon: 431000 M⁻¹ s⁻¹
[12]
  koff: 0.0192 s⁻¹
  kon: 3.42e+06 M⁻¹ s⁻¹
[13]
  koff: 0.0132 s⁻¹
  kon: 851000 M⁻¹ s⁻¹
[14]
  koff: 0.0053 s⁻¹
  kon: 506000 M⁻¹ s⁻¹
[15]
  koff: 0.0076 s⁻¹
  kon: 2.35e+06 M⁻¹ s⁻¹
[16]
  koff: 0.0212 s⁻¹
  kon: 8.12e+07 M⁻¹ s⁻¹
[17]
  koff: 0.0035 s⁻¹
  kon: 2.41e+06 M⁻¹ s⁻¹
[18]
  koff: 0.0205 s⁻¹
  kon: 1.66e+07 M⁻¹ s⁻¹
[19]
  t1/2: 39.8 s
[20]
  t1/2: 20.2 s
[21]
  t1/2: 40.1 s
[22]
  t1/2: 54.6 s
[23]
  Kd: 24.4 nM
[24]
  Kd: 44.2 nM
[25]
  Kd: 19.2 nM
[26]
  Kd: 21.4 nM
[27]
  Kd: 39.6 nM
[28]
  Kd: 10.4 nM
